According to the supplement of paper PMC9876800:

Test system: peptide library, one residue held at a place counted from the S/T acceptor
Experiment: relative phosphorylation of the sub-library (ratio to the mean residue at this position); higher = residue favoured
Details: human
Procedure, shortened: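 In 384-well plates, purified recombinant kinases (human or orthologue constructs) were incubated for 90 min under kinase-specific conditions with 50 μM biotinylated degenerate peptide sub-libraries and 50 μM ATP spiked with γ-32P-ATP. Each sub-library fixed a single residue at one position around a central Ser/Thr. Relative sub-library phosphorylation, measured by phosphorimaging and densitometry of streptavidin membrane spots, is given as a ratio to the mean residue at that position.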

Chain of TRPM7, construct: aa1158-1865 (Q96QT4 1158-1865, looked up): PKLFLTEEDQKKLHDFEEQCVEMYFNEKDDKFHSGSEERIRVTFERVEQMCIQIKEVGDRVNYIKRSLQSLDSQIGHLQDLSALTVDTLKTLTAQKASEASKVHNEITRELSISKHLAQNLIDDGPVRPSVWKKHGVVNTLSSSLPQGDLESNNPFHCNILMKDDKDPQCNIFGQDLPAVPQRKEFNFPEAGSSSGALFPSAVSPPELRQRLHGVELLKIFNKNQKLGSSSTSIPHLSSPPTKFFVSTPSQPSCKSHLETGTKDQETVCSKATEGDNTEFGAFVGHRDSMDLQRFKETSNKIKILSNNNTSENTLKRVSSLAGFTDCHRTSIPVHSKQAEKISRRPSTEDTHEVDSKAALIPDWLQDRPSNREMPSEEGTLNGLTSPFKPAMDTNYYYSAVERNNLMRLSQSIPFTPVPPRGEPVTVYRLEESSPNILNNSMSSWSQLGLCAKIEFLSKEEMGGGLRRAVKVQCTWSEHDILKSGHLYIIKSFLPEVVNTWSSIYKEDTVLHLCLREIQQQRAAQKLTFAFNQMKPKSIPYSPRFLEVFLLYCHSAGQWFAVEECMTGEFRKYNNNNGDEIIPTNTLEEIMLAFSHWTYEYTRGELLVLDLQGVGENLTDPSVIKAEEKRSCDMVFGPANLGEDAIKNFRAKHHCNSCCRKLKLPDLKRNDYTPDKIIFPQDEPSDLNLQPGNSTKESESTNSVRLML

TRPM7, construct: aa1158-1865 (from UniProt Q96QT4)
relative phosphorylation
Details	at +1	at +2	at +3	at +4	at -1	at -2	at -3	at -4	at -5
A fixed	0.649	1.18	1.19	0.591	0.902	1.13	0.852	1.08	1.17
D fixed	0.266	0.121	0.341	0.604	0.484	0.551	0.659	0.821	0.972
E fixed	0.501	0.0976	0.256	0.561	0.489	0.576	0.836	1.07	1.05
F fixed	0.859	1.81	0.854	0.958	0.58	1.19	1.06	1.19	1.03
G fixed	0.451	0.661	0.904	0.871	0.406	1.28	0.897	1.08	1.4
H fixed	1.1	1.22	1.22	1.34	1.47	0.842	1.05	0.86	1.1
I fixed	1.26	0.601	0.42	0.781	0.46	0.446	0.686	0.668	0.532
K fixed	2.16	1.21	2.47	2.09	2.76	0.931	1.13	1.31	1.24
L fixed	1.18	0.477	0.662	0.859	0.996	0.868	1.01	0.872	0.608
M fixed	1.06	0.808	0.664	1.12	0.969	1.42	1.19	1.17	0.767
N fixed	0.54	0.445	1.11	1.16	1.25	0.857	1.48	1.09	1.2
P fixed	0.142	1.42	0.623	0.676	0.896	1.28	1.07	0.972	1.1
Q fixed	1.58	1.11	1.15	1.17	1.07	1.11	0.995	0.948	1.01
R fixed	2.14	2.06	2.52	1.61	2.11	0.975	1.36	1.17	1.29
V fixed	1.1	0.572	0.573	0.637	0.586	0.553	0.74	0.675	0.732
W fixed	0.79	1.4	0.831	1.13	0.487	2.17	1.02	1.12	0.976
Y fixed	1.22	1.81	1.21	0.852	1.08	0.822	0.954	0.884	0.811
pThr fixed	0.455	0.317	0.499	0.68	0.488	0.704	0.893	1.11	1.05
pTyr fixed	0.856	0.489	0.677	0.541	0.776	0.675	1.09	0.916	1.08
